Data as given in article doi:10.1101/2020.09.25.312835 (bioRxiv, 2020).

Biological target: the molecule itself
Test: cross-linking

B1: C-terminal fragment of bovine ROS-GC1 comprising the αHD and CD (aa 814-1110) (domain or fragment, UniProt P55203 814-1110, looked up)
chain: NKGRKMNIIDSMLRMLEQYSSNLEDLIRERTEELELEKQKTDRLLTQMLPPSVAEALKMGTPVEPEYFEEVTLYFSDIVGFTTISAMSEPIEVVDLLNDLYTLFDAIIGSHDVYKVETIGDAYMVASGLPQRNGHRHAAEIANMALDILSAVGTFRMRHMPEVPVRIRIGLHSGPCVAGVVGLTMPRYCLFGDTVNTASAMESTGLPYRIHVNRSTVQILSALNEGFLTEVRGRTELKGKGAEETYWLVGRRGFNKPIPKPPDLQPGASNHGISLHEIPPDRRQKLEKARPGQFSGK
binding result: binds
